Here are results for 1 substance from publication PMC7583008.

Broadly, the Ki is a measure of affinity in units of concentration, obtained from inhibition or displacement.

Assay [1] deals with GH2 β-mannosidase from Cellulomonas fimi (EC 3.2.1.25) (Cellulomonas fimi) (UniProt Q9XCV4).
Assay [2] shares this target. The source holds these as a separate data set.
For assay [3] the target is unchanged. The source holds these as a separate data set.
Assay [4] shares this target. Kind of assay: enzyme inhibition titration (residual activity against inhibitor/enzyme ratio); fixed enzyme (11.8 μM) preincubated with increasing γC for 10 min at room temperature; 100 mM sodium maleate pH 6.0, BSA 1 mg/mL, 1 mM Zn2+, pNP-β-D-mannopyranoside 0.8 mM, 35 °C, 15 min; Ki calculated from the IC50 by the method of Cer et al., assuming competitive inhibition (Km 300 μM); stoichiometry from the x-intercept of the tangent line.

UniProt Q9XCV4, sequence (Q9XCV4 entry or part of it): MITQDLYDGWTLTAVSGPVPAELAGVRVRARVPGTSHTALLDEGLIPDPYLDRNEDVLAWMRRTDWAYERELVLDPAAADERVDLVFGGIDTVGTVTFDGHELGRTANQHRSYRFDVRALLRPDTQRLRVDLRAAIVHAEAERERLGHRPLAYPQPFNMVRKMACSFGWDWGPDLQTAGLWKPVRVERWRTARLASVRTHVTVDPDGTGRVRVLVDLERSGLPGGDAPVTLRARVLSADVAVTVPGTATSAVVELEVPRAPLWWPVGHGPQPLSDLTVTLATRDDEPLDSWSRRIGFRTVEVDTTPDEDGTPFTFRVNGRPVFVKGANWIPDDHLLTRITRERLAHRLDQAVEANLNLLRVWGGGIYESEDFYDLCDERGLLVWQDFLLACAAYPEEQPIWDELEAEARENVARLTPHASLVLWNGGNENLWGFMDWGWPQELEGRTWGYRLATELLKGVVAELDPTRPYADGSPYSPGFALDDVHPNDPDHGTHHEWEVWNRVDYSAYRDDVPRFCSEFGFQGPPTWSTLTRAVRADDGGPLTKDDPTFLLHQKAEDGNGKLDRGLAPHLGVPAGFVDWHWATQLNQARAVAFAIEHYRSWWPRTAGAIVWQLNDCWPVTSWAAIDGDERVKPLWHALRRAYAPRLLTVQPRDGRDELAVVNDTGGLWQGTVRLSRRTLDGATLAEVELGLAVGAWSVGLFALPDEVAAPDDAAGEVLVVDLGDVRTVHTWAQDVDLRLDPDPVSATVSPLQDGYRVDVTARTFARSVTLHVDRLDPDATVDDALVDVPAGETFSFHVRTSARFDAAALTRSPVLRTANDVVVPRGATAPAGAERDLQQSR

As to “Lupinus albus γ-conglutin (natural protein)”, the residual activity of GH2 β-mannosidase with γC at a molar ratio of 1:1 (pNP-β-D-mannopyranoside as substrate, no metal added) in assay [1] amounted to 73%. For the same substance, the residual activity of GH2 β-mannosidase with γC at a molar ratio of 1:1 in the presence of 1 mM Zn2+ in assay [2] came out at 55%. In addition, the IC50 of the inhibition of GH2 β-mannosidase activity by γC, as a molar ratio (11.8 μM enzyme, 1 mM Zn2+, pH 6.0) (molar ratio [γC]/[GH2]) in assay [3] came out at 0.99. In assay [4], the Ki was 1.55 µM and the stoichiometry N (enzyme/inhibitor) is 1.14.
